Test results from US10894811B2, “Peptide inhibitors of calcium channels” (The University of North Carolina at Chapel Hill, priority 2016, dated 2021).
Entries after “also recorded” stand apart in the source; their conditions may differ.

Legend:
TRPC3 = target: T1, TRPC3 (Homo sapiens, UniProt Q13507); assay: Co-immunoprecipitation in HEK293T cell lysates (V5-SPLUNC1 / Myc-TRPC3); type: binding; details: HEK293T cells cotransfected with V5-SPLUNC1 and Myc-TRPC3
T1 construct: host or cells: HEK293T
T1 sequence (Q13507 74-921 limits assumed): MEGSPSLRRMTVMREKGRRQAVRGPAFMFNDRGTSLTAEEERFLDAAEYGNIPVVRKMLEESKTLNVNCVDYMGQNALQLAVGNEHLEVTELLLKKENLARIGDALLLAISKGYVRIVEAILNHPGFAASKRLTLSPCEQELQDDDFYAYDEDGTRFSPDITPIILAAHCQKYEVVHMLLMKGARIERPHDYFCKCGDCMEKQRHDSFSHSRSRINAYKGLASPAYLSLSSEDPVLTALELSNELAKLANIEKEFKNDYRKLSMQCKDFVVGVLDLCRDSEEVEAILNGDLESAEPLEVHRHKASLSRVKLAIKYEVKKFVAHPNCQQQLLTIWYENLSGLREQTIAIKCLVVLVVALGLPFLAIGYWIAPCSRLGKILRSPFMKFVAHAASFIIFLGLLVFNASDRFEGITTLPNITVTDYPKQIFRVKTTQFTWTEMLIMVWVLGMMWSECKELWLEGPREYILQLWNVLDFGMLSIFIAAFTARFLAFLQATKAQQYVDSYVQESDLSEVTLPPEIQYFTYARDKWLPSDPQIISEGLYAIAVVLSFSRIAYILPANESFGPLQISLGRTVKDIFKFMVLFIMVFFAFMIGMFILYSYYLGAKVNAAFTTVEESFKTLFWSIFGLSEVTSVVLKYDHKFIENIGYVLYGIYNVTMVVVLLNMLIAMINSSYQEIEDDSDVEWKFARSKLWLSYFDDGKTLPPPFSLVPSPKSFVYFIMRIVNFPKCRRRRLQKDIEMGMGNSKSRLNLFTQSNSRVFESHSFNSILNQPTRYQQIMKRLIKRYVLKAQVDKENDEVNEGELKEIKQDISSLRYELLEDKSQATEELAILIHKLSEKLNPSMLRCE
Method: (§1) DNA constructs: Yellow fluorescent protein (YFP) tagged human Orai1 and Myc tagged TRPC3 were gifts from Dr. Craig Montell (Addgene plasmid #25902) and Dr. Anjana Rao (Addgene plasmid #19756), respectively. HA tagged human Orai1 was a generous gift from Dr. Patrick G Hogan at La Jolla Institute for Allergy & Immunology. pcDNA3.1(+)-V5-SPLUNC1 was a generous gift from Dr. Colin D Bingle at the University of Sheffield.
(§2) For immunoprecipitation, cell lysates were collected at 48 h post-transfection in Pierce® IP lysis buffer in the presence of 1× protease inhibitor cocktail (PIC) (Roche). Cell lysates were pre-cleared with protein A/G agarose beads and then incubated with 1 μg of antibodies against HA (BioLegend) or V5 (Invitrogen) with protein A/G agarose beads on a rotator at 4° C. overnight. After three washes with IP lysis buffer, immunoprecipitated complexes were eluted in sample buffer (50 mM Tris-HCl [pH 6.8], 2% sodium dodecyl sulfate (SDS), 10% glycerol, 5% (v/v) β-mercaptoethanol (BME), 0.1% bromophenol blue) by heating the samples at 95° C. for 5 min, electrophoresed through SDS-polyacrylamide gels, and subjected to immunoblot analysis.

Orai1 [1] = target: T2, Orai1 (Homo sapiens, UniProt Q96D31); assay: Co-immunoprecipitation in HEK293T cell lysates (V5-SPLUNC1 / HA-Orai1); type: binding; parameters: expressed in transfected cells; host or cells: HEK293T; details: HEK293T cells cotransfected with V5-SPLUNC1 and HA-Orai1
T2 sequence (Q96D31 whole entry): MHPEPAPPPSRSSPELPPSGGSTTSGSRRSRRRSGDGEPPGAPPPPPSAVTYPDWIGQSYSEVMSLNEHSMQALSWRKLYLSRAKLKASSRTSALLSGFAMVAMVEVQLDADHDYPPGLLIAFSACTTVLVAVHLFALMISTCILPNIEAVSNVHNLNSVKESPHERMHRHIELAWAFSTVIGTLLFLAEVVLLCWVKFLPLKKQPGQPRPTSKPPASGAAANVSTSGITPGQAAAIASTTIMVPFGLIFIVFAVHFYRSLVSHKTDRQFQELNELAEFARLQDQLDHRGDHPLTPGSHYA
Method: as §1, §2

Human ASMCs = assay: Cell contraction assay (collagen gel); type: cell-based; details: pre-incubation with recombinant SPLUNC1; with or without Ach; 60 min
Method: Cell contraction assay: The cell contraction assay was performed using a standard commercially available kit (Cell Biolabs). Human ASMCs were harvested and re-suspended in DMEM, two parts of cells were mixed with eight parts of collagen gel lattice mixture and plated for 1 h at 37° C. After the gel solidified, 1 ml of medium was added and incubated for 48 h. Next the gels were released from the sides of wells, and the images were taken using a ChemiDoc™ MP imager (BioRad) at 0 and 1 h after adding indicated reagents. The changes of collagen gel surface areas were analyzed using ImageJ software and normalized to areas of gels at 0 time point.

Orai1 [2] = target: T2, Orai1; assay: Surface biotinylation / immunoblot of plasma membrane Orai1; type: cell-based; details: ASMC, after 4 h of SPLUNC1 exposure
Method: Surface biotinylation: hASMCs were treated with or without SPLUNC1 for 4 h. Cells were then washed with prechilled PBS^++ (phosphate buffered saline supplemented with 1 mM CaCl2 and 1 mM MgCl2), and then labeled with 0.5 mg/ml sulfo-NHS-biotin (Thermo) in borate buffer (85 mM NaCl, 4 mM KCl, 15 mM Na2B4O7, pH 9.0) while tumbling gently for 30 min on ice. hASMCs were incubated in PBS^++ buffer supplemented with 10% FBS for 20 min at 4° C. to quench free biotin. Cells were washed again three times with chilled PBS^++ and proteins were extracted as previously using lysis buffer (0.4% sodium deoxycholate, 1% NP-40, 50 mM EGTA, 10 mM Tris-Cl, pH 7.4) supplemented with 1×PIC. Total inputs were taken from whole cell samples representing 4% of total protein. Solubilized proteins were incubated with 100 μl of neutravidin beads (Pierce) overnight while rotating at 4° C. Samples were washed three times with lysis buffer. Bead-bound proteins were then eluted and SDS-polyacrylamide gels, and subjected to immunoblot analysis.

Orai1 [3] = target: T2, Orai1; assay: Fluorescent (confocal) microscopy of Orai1 localization; type: cell-based; parameters: expressed in transfected cells; details: ASMC treated with SPLUNC1
Method: Fluorescent microscopy: Human ASMs were grown on 25-mm glass coverslips for fluorescent imaging. Cells were transfected with the indicated fluorescent-labeled proteins. At 24 h post-transfection, cells were incubated with or without SPLUNC1 for 4 h, followed by methanol fixation and DAPI (1 μg/ml) staining for nucleus. For live cell imaging, cells were grown on 35-mm glass-bottom dishes (In Vivo Scientific) and transfected with the YFP-Orai1. At 24 h post-transfection, cells were incubated with SPLUNC1 and images were taken at indicated time point. All images were taken with a Leica TCS SP8 63× oil lens using the Leica Application Suite X software (Leica).

B1: SPLUNC1: Short palate, lung and nasal epithelium clone 1, recombinant full length protein (protein, listed as Homo sapiens)
chain: MFQTGGLIVFYGLLAQTMAQFGGLPVPLDQTLPLNVNPALPLSPTGLAGSLTNALSNGLLSGGLLGILENLPLLDILKPGGGTSGGLLGGLLGKVTSVIPGLNNIIDIKVTDPQLLELGLVQSPDGHRLYVTIPLGIKLQVNTPLVGASLLRLAVKLDITAEILAVRDKQERIHLVLGDCTHSPGSLQISLLDGLGPLPIQGLLDSLTGILNKVLPELVQGNVCPLVNEVLRGLDITLVHDIVNMLIHGLQFVIKV
co-immunoprecipitation with TRPC3 (TRPC3): but not an alternate Ca^2+ channel (TRPC3), could be co-immunoprecipitated; also recorded: does not interact with TRPC3 | co-immunoprecipitation with Orai1 (Orai1 [1]): could be co-immunoprecipitated; also recorded: interacting with Orai1 | ASMC contraction in collagen matrix (decrease in gel surface area) (Human ASMCs): significantly reduced; also recorded: decreases airway smooth muscle (ASM) contractility | decrease of plasma membrane Orai1 levels (Orai1 [2]): ~50% | cytosolic Orai1 / Orai1 internalization (Orai1 [3]): increased; also recorded: Orai1 is internalized
